What was measured:
[1] = target: SARS-CoV-2 Receptor Binding Domain (RBD) (SARS-CoV-2, UniProt P0DTC2)
[2] = target: SARS-CoV-2 hexaproline stabilized pre-fusion spike glycoprotein (S6P) (SARS-CoV-2, ancestral (Wuhan-Hu-1 …, UniProt P0DTC2, stabilised))

Binder	binding result [1]	binding result [2]
COVA2-24 (antibody, V domains shown) VH: EVQLVQSGAEVKKPGESLRISCKGSGYSFTSYWISWVRQMPGKGLEWMGRIDPSDSYTNYSPSFQGHVTISADKSISTAYLQWSSLKASDTAMYYCARPNPAGGYDSSGWVDAFDIWGQGTRVTVSS VL: not shown	binds	–
COVA2-11 (antibody, V domains shown) VH: EVQLVESGAEVKKPGSSVKVSCKASGGTLSSYAISWVRQAPGQGLEWMGGIIPIFGTANYAQKFQGRVTITTDESTSTAYMELSSLRSEDTAVYYCARGPRGCSSTSCYGSYFDYWGQGTLVTVSS VL: not shown	binds	–
S304 (antibody, V domains shown) VH: VQLVESGGGLVQPGGSLRLSCAASGFTFSSYDMHWVRQTTGKGLEWVSTIGTAGDTYYPDSVKGRFTISREDAKNSLYLQMNSLRAGDTAVYYCARGDSSGYYYYFDYWGQGTLLTVSS VL: DIEMTQSPSSLSAAVGDRVTITCRASQSIGSYLNWYQQKPGKAPKLLIYAASSLQSGVPSRFSGSGSGTDFTLTISSLQPEDFAIYYCQQSYVSPTYTFGPGTKVDIK	–	binds
S2M11 (antibody, V domains shown) VH: EVQLVQSGAEVKKPGASVKVSCKASGYTFTGYYMHWVRQAPGQGLEWMGWINPISSGTSYAQTFQGRVTMTSDTSITTAYMELSRLRSDDTAVYYCARAAPFYDFWSGYSYFDYWGQGTLVTVSS VL: not shown	–	binds
COVA2-07 (antibody, V domains shown) VH: EVQLVETGGGLIQPGGSLRLSCAASGLTVSSNYMNWVRQAPGKGLEWVSVIYSGGSTYYADSVKGRFTISRDNSKNTLYLQMNSLRAEDTAVYYCAREAYGMDVWGQGTMVTVSS VL: not shown	binds	–
S2X35 (antibody, V domains shown) VH: QVQLVQSGAEVKKPGASVKVSCKASGYTFTNYGISWVRQAPGQGLEWMGWISAYKGNTNYAQKLQGRVTMTTDTSTSTAYMELRSLRSDDTAVYYCARPDYQVLGYDFWIGYYGMDVWGQGTTVIVSS VL: QSVLTQPPSVSGAPGQRVTISCTGSSSNIGAGYDVHWYQQLPGTAPKLLIYGNTNRPSGVPDRFSGSKSGTSASLAITGLQAEDEADYYCQSYDSSLSGSEVVFGGGTKLTVL	–	binds
P2B-2F6 (antibody, V domains shown) VH: QVQLQESGPGLVKPSETLSLTCTVSGYSISSGYYWGWIRQPPGKGLEWIGSIYHSGSTYYNPSLKTRVTISVDTSKNQFSLKLSSVTAADTAVYYCARAVVGIVVVPAAGRRAFDIWGQGTMVTVSS VL: QSALTQPPSASGSPGQSVTISCTGTSSDVGGYNYVSWYQQHPGKAPKLMIYEVSKRPSGVPDRFSGSKSGNTASLTVSGLQAEDEADYYCSSYAGSNNLVFGGGTKLTVL	–	binds
CV07-270 (antibody, V domains shown) VH: QVQLVESGGGLVKPGGSLRLSCAASGFTFSDYYMTWIRQAPGKGLEWVSYISSSGSTIYYADSVKGRFTISRDNAKNSLYLQMNSLRAEDTAVYYCARARGSSGWYRIGTRWGNWFDPWGQGTLVTVSS VL: QSALTQPASVSGSPGQSITISCTGTSSDVGGYNYVSWYQQHPGKAPKLMIYEVSNRPSGVSNRFSGSKSGNTASLTISGLQAEDEADYYCSSYTSSSNVVFGGGTMLTVL	–	binds
S2E12 (antibody, V domains shown) VH: not shown VL: DIVLTQTPGTLSLSPGERATLSCRASQSVSSSYLAWYQQKPGQAPRLLIYGASSRATGIPDRFSGSGSGTDFTLTISRLEPEDFAVYYCQQYVGLTGWTFGQGTKVEIK	–	binds
COVA2-05 (antibody, V domains shown) VH: EVQLLESGAEVKKPGESLKISCKGSGYSFTSYWIGWVRQMPGKGLEWMGIIYPGDSDTRYSPSFQGQVTISADKSISTAYLQWSSLKASDTAMYYCARHMRPSIAARPGYQYYMDVWGKGTRVTVSS VL: not shown	binds	–

Source: paper PMC10318062 (Nature Communications, 2023)
